Experimental data taken from the DeepSol protein solubility set.

Experiment: soluble on expression in E. coli; label from the status in PepcDB or PDB records

With “MGSDKIHHHHHHMQLTSENYYSQEANKEYMSVSGYKDFAGTYGKMPCEFYGMEKLNGRWEDEKSTALLVGSYVDSYFEGSLDQFKKDNPEIFTQKGELKANFKQAEEIIARIERDEYFMKYMSGQKQVIMTGELFGAKWKIKMDSYIPGVAIVDLKVMASITDLKWVKDIGYLDFVRYWGYDIQGAVYQEIVRQNTGEKLPFFIAGATKQTEPDIRIIHVTDNYLQEALHMVEMNMPRILRVKNGEVEPDRCELCDCCRHNRVLKKPISIMDLTAGI” as the sequence, how does the “soluble on expression in E. coli” value read?
Its value is “not soluble”.

With “MGSDKIHHHHHHMQNLHIFGEQKKTDWVIFENLEKVESKTLTEEGSAIRLNSGKYRKLKAISSVDPDVLYSTCKQFLPLNELEVLNKWEPSWGKVREDILNSKVELWNQCMHESACQYAPEVVSTKAYWKSVQQHIWFCTSSSELKEDIRTCFMLDFYITVQKEGRTKQSNLTRSWLSPINVQEEDLQELVLYTANAAMEKLDARPFPSGSYALILGPLAAPGIFHEVVGHGLEADIASIPQSAFHQRLGAMVGCEKVTIIDDPTKEGLPGSYSLDDEGTIAQQTTLIEKGRVVNYLSHLHTGHPTNGHGRVINYQHLPLVRMSNTFLLPGTDDPEEMVSDTEVGLYVKKAINGDVNMITGEFEIHVAEGYLIEKGQITSPILPTTLKGDGQKLLQSIDRVGNDFAIHSEVRGGCGKLGQSPLPVSAGSPTVRVLDWYVKGADR” as the sequence, how does the “soluble on expression in E. coli” value read?
The value was “not soluble”.

Which “soluble on expression in E. coli” value does the source give for “MGSDKIHHHHHHMQQNTNVDPQEIAKFERMAETWWDLNGEFKPLHLLNPLRLNYIDQTAGGIFGKKVLDVGCGGGILSESMARIGAIVDGLDMGEEPLEVARLHALETGVSINYVKNTAEAHREDHREYYDVVTCMEMLEHVPDPQSVIQACCDMVKPGGFVFFSTINRNVRSFVETIIGAEYLLKMLPIGTHDHNKFIKPSELIDLVDNTELICKDALGITYNPLTGIFKYTSKVDVNYMIATQKVD” here?
Its value is “not soluble”.

Which “soluble on expression in E. coli” value does the source give for “MGSDKIHHHHHHMQQVFFQETEFLNSVIDYDHKVETENLCLDIAYGTDKNFLFGCGISIASILKYNEGSRLCFHIFTDYFGDDDRKYFDALALQYKTRIKIYLINGDRLRSLPSTKNWTHAIYFRFVIADYFINKAPKVLYLDADIICQGTIEPLINFSFPDDKVAMVVTEGQADWWEKRAHSLGVAGIAKGYFNSGFLLINTAQWAAQQVSARAIAMLNEPEIIKKITHPDQDVLNMLLADKLIFADIKYNTQFSLNYQLKESFINPVTNDTIFIHYIGPTKPWHDWAWDYPVSQAFMEAKNASPWKNTALLKPNNSNQLRYSAKHMLKKHRYLKGFSNYLFYFIEKIKH” here?
Its value is “not soluble”.

With “MGSDKIHHHHHHMQVVYHLGAPCTDADQLIMSLLKNRLRLAQAGIFVPVPGRYRAVIRDTARALKGQPAGKEVQEALLDAIVDDAQVDRLVLSDPRFVCINRLVVQGAQIWPMIERAATGLRALFPEAHVEFFIGMRDPATLIPALFKASRFSDFAEFTENMQPHAVAWSETLRRLQLAHPDCRITAWCNEDTPLLWGEILRELAGVGPEGELDGINDLAVSIMEEEGLKRMGQWFGQNPPKTEAQRRRALTAFLERYAKAGEIEETLNLPGWDEALMAEMSQSYDQDMEVIARLPGVTLLVP” as the sequence, how does the “soluble on expression in E. coli” value read?
Its value is “not soluble”.

Which “soluble on expression in E. coli” value does the source give for “MGSDKIHHHHHHMRDMVPRLTKSYEASSQPIASIRSSVLSVVVGALEATGVSTDHLLAQHGLSRLTLDDPYNPVSLKNYVAFFEDAARMSSQPMLGIRLGNAIKAEDLGPVGVLYTMMQTLRSAIVRFSHFFPALQGSTKLGLSVRGDATWLEYQIEDQTIWPRRQDTEFTLALICALTRSRLGRGWAPEEIHFEHSAPTNGRDMAHFFGAVIRFDQPINRMLIRTEDLDLPFASANPAAIAIIEQHLNDLIGDGVVPAFEDAVLQAIMRCMKRGEVTLELVASRLGIGPRTLQRRLAATGRTFREIVQQQRHGTATVLLKDERIALGVVAGNLGYADTATMSRAFKTWTGQSPRAYSKKNRREAR” here?
Its value is “not soluble”.

Which “soluble on expression in E. coli” value does the source give for “MGSDKIHHHHHHMRDSVFKLSYFLSANEKFHIARVNITSSQDLSLHSHDYAEILWVEKGTGIHHVNGHQFRLSPGDLIMVRPKDRHTFSSSGKGIVIVNVAFPVETLDYFRQRYFEWSNLYFWTTGMFPFQMRLSRDIVKRLSSRAEEAMKYGRSNIQLDSLLLFIFRQITANEKVEDSSEIPVWLFNAIQKFNSPEFFIQGIAGFVTLCDRNIDYVNRIVKLHFHKSLTDLINEFKMQYATTQLSITSMPIKEICTNCGFRNLGHFYKIFRSVYNQTPYEYRRINQLIV” here?
The value was “not soluble”.

For “MGSDKIHHHHHHMREDIVVIGGYGQVGRAICRLLARRYAGRVYAAGRNFEKANRFSLETDGEVQPLQVDIHQPKKAFEALNQPKVVIVCIDQDHTEFARLCAKNGIDYLDITANGKFLKELGGLNRGAVKHTGVISVGLAPGITNLLVEQAVRMFEQVHQVDISILLGLGDEHGVGAMEWTFQQINQSFDVMVQNDWRQVKSFTDRKQVSFGKAIGNHSVYRFPFSDQQTLARTLHLPTVSTRLCFDSRLVTAVVATMRRLHITKLLSLPAVRKVLTTLLNVFPYGSEQYGVRVEVKGVRKDEKEEVYSLFTGENEALMTAHVASAVAFALYEHPCPKGVFHIEELFELVFIDQHISLTLKGTEFSYPLPTPKQFVQNETSICSQNHS”, which “soluble on expression in E. coli” value is on record?
The value was “not soluble”.

Which “soluble on expression in E. coli” value does the source give for “MGSDKIHHHHHHMREKLFWILKKYGVSDHIAKAFLEIPREEFLTKSYPLSYVYEDIVLVSYDDGEEYSTSSQPSLMALFMEWVGLDKGMRVLEIGGGTGYNAAVMSRVVGEKGLVVSVEYSRKICEIAKRNVERLGIENVIFVCGDGYYGVPEFSPYDVIFVTVGVDEVPETWFTQLKEGGRVIVPINLKLSRRQPAFLFKKKDPYLVGNYKLETRFITAGGNLGNLLERNRKLLREFPFNREILLVRSHIFVELVDLLTRRLTEIDGTFYYAGPNGVVEFLDDRMRIYGDAPEIENLLTQWESCGYRSFEYLMLHVGYNAFSHISCSI” here?
The value was “not soluble”.

Which “soluble on expression in E. coli” value does the source give for “MGSDKIHHHHHHMRFDLIDLRLFLHILETGSITHGAARANMSLPSASARLRGMEDALGMPLLERGRRGVESTPTGDTLAHHARLVLGQIERMQGELGEHQEGRKACIRLWTNTAAITEFLPAAIGLFLRDHPNVQIDLKERQSSETVKAVLSGAAEIGIISDAVEHGALQTFPFAIDKLVLVTSRDDALATCRRTTLAEVADREFIGLSADSALQAYLGERALLAGQPLSFRTHVRTFDAVCCMVDQGAGVGIVPATAAKRYRGTPGIRTIELTDSWATRQLLICMRDLNAMARPEKALVRHLAGI” here?
The value was “not soluble”.

For “MGSDKIHHHHHHMRIGVAGVGKLGEFHTNLLKQIAAEASDVEFSGVFDLNPERLQEIGKKYGVACFSTLEELAASCDAAVIATTTSSHYAIARQLLEARLHLFIEKPITATLEEADKLIRIEQEKGLTIQVGHIERFNPALLAVEPYIGEPMYIQAERLSGFSRRVTDVSVVLDLMIHDIDLVLSLIKSDIRSIAASGVKVFSNELDMATARIEFENGAIANVTASRLSRSKLRKMRFFTRNPKSYASLDFTSGKSEVFRLVPPDQLSSKNPIKNFATKKILEQFGEIQESLKEMALDYVSPDVPKINALKEELEQFIDAIRKGKPAKVTSEEGRRALMVAGKITDEIRNNTADLD”, which “soluble on expression in E. coli” value is on record?
Its value is “not soluble”.

For “MGSDKIHHHHHHMRILALVPGGIGDQILFFPTVADLKKYYPQAQIDVVVEPRAVGAYRVCAEVDQVFPFDFKDRNSLADWGNLLGSIREREYEAVLSLGQRSLVGLFLWLTGIPKRVGYAGRGKIFLTDAVPLNREQYAGALYHDLLQGFGINTPCPNPKLTLARQDLDWATAEQQRLGLAGQGYLVLHGGSSTLAKLKGLQKVYPVEKWAIVLRSIREQRPSLPFVVVQGPDDAEFVAELRKSNLDFQVVQPPDIGKLAAIIAGADLMLCTDSAPMHLAVASGTRTIALFGPFEPAKLLPADDRFIGIKAQGVDVATIPPQEIIDRLFGR”, which “soluble on expression in E. coli” value is on record?
Its value is “not soluble”.

For “MGSDKIHHHHHHMRILIRADGGRDIGMGHIMRTLTLARELNKYFEVIYVCKTENEDRKTSVNGKYAKGIHKILSSGFKVKIVRENNMVEDLYEIKGDILITDSYDVNEEYFKKTSEMFHKTIYIDDMCLYDFKDVDMIINQNINADNLKYDAAGNKSLLLGCRYVMLRDEFKDLGAKIIRRKVRDVMITTGGADPFLLTLKLLYYLKQENYNFHVVVGSSFDDIYVEKLKTYEELKNINFYYNANMKELMKKCDACISAAGSTLYELCSVGVPSLSITVAENQSKAAEKFDALKIIKNLGWHNELTREKVLEEINSLSNDYNRRKNVSMTSQSIIDGMGTQRIVEKILDMV”, which “soluble on expression in E. coli” value is on record?
Its value is “not soluble”.

For “MGSDKIHHHHHHMRITNTLTGKKEEFVPIQPGVVRMYVCGPTVYDLIHVGNARPALVFDVFRRYLEYRGYRVIMVQNFTDIDDKIINKANQLGVDYKTVADTFIAEYWRDAHALGIRPANFHPRTTDFVEDIVEIIEKLVEKGFAYQTETGVYFDVRKFEKYGELSKKKIEDLIAGARVEVDETKKSPLDFSLWKKAKPGEPCWKSPWGEGRPGWHIECTVMSVKILGESFDIHAGGEDLVFPHHENEKAQAEALTGKVFARYWMHNGMVRFLGDKMSKSTGNIFTVREAVKRYGRDGLRYMILSKHYRSPMDFSEELLQDYSRAVKRVWEILGRYEKSGDIGIPKRNAVYEEYVNRFVEALDDDFNTPVAVSLIFELARNLSKAMDDNDREDALLYYHLIRREFGPVLGLFDLNEEKKEVSSEELLKLLIEVRDVLRKEKRYDLSDRIRDRLREIGIILKDTPSGTEYTVE”, which “soluble on expression in E. coli” value is on record?
Its value is “not soluble”.

With “MGSDKIHHHHHHMRITSIFLFTIIIFGGLSCSNDDSLIHNKTKGILEKYPEPTVTITAHNHIPFLAKNILEEKAITKSVNIISDIAWANGFGRTITARSDEMVIPDNMNRYIYPGSILEASSIAETRFTPIPVKNNPVHVSVSFPAKKVGGTIKEPSLLNIRQFVMDLMQQNNIGKQSATLSFDVQKFVSYDELKMTFGSNENTGLLFWGTSSAQYQNKYRIIRSSGLCIKFIQKYFTLDMDIPSNGLISGTIPGGYSPVYVSSIAYGRIGILTLETNYDYEKANKLVKETFNSLFINKNNTLTKEQEAFFNSAEMKVFIAGGSGVTGVKTIGGIKEFTNYITEGGEFSASSPGKPIFCSFANYSDDSPYRINFKIDIDSDPVYARLEYDITKDVSGGNVKSWYTDANVYLRFYADKACSIKTIAQNYIGFNINRLILQQYVGPNYSVSKAREVKLDQNLTFHNQTKGIEYPIAYGHRMTETIGTTYLDRGNWTNDHFYLRAGKFYQVRPPINMKYTCFIDYHNQNEYDCSDFE” as the sequence, how does the “soluble on expression in E. coli” value read?
Its value is “not soluble”.

For “MGSDKIHHHHHHMRIVAVTDIHGNMASTVALANILKKIEAELLLIAGDITHFSGGEIAKQILEPLLKLGVRVLAVMGNCDGKDVPKVLDELGINVHNARVEVKKVGVVGFGGSSVTPFSTIWEFSEEEIYSSLKRNYRSGDIVLTHAPPYRTRIDKTFSGIHAGSKGLRKFIEEEQPPICICGHIHEARGIDKIGETLVVNPGPLSRRYYAVIDSETWEVKLERL”, which “soluble on expression in E. coli” value is on record?
Its value is “not soluble”.

With “MGSDKIHHHHHHMRIVFVGTPEFAAEILEHLIKNGFNVVGVVTQPDKPRGRGRKVAPTPVKAVAEKHEVPFIQPESINKKEALEFLRSVRPDVIIVASYGKILGEKVLSLPRLGCYNIHPSLLPKYRGASPIQRVLENGEERTGVTIYKMVKELDAGPIALQKEISVDPFETFDQLEKRLIELSKEMLIEFLEKLKTGNIELKEQDHSRATYAPMIKKEDLIVDFSKDAESVKNKIRAYDSRPGARAFLGNVEVKLFGVTAIDSSGDEPGLINYIDREGAWIGTGDGKVKVRYIQFPGKKKMTFWEAKNGRLIIEGMRFERRYES” as the sequence, how does the “soluble on expression in E. coli” value read?
Its value is “not soluble”.

For “MGSDKIHHHHHHMRKHGGDVYAYSGQYENILDFSANTNAFIDTGVLSRYPEVSPGDIEKMILQYTGAKSLRVIIGPGLTHFIYRIPAWMGLRRSLIIEPNFNEYEASLLAYGSRTSSLGLGVLKRNPEIVRSYRPDSIFICSPVNPTGDLVDAGLLRKLSMEMSRMGGILFVDQAFGDFVPEHAEETVRIAEEMGNVIIGRSLTKILSIPSLRLGYILVSDQVFGMIRDREEPWAVCEPALEFVRKADLKALRDTSLKRIGEERSYLMEALENMGFEILGDPHANFIAFRSPFEIDLKKQLLKSGILIRDLSDYADFGKNCYRVAVRGRSENALLIQALRNAIL”, which “soluble on expression in E. coli” value is on record?
The value was “not soluble”.
